{
  "source": "paper PMC5964162",
  "target": "Human complement C1q (human) (UniProt P02745)",
  "sequence (P02745 23-245, chain 1 of 3)": "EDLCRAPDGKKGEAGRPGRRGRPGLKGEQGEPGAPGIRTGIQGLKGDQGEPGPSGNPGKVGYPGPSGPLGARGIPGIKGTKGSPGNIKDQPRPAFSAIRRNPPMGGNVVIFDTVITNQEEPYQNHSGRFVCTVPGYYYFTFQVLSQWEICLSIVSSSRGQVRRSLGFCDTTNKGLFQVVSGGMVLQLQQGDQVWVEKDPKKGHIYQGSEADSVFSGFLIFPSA",
  "sequence (P02746 28-253, chain 2 of 3, further chain)": "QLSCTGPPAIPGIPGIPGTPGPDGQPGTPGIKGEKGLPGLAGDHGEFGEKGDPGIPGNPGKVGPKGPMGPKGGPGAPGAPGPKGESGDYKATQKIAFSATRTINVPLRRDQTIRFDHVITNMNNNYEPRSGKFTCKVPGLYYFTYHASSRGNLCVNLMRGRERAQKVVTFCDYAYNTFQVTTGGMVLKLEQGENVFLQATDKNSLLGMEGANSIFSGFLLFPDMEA",
  "sequence (P02747 29-245, chain 3 of 3, further chain)": "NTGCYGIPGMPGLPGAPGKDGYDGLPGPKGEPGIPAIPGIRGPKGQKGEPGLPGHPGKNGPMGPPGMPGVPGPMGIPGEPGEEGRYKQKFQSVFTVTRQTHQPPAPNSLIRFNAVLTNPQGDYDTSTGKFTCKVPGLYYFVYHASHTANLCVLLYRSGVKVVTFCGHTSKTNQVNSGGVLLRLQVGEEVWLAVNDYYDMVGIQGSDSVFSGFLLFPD",
  "experiment": "ELISA",
  "data": [
    {"substance": "Recombinant SntA protein of Streptococcus suis (from UniProt Q8VUN9 1-813) (natural protein)", "values": [
      {"measurement": "percent of C1q–IgG binding left with 50 µM SntA", "value": 3.34, "unit": "%"}
    ]}
  ]
}
